Results reported in US20050130203A1, “Novel GABAB receptor DNA sequences” (Board of Regents, The University of Texas System, priority 1998, published 2005).

Tests used:
murine GABABR1a (murine) = murine GABABR1a (murine) (UniProt Q9WV18); assay: cell-based or functional assay
GABABR1a = biological target: T1, GABABR1a (Mus musculus, UniProt Q9WV18); assay: Xenopus melanophore pigment aggregation/dispersion assay, GABABR1a alone; format: cell-based, murine; details: melanophores transfected with GABABR1a alone; up to 1 mM
T1 construct: GABABR1a was expressed by subcloning full-length GABABR1a into the NheI-NotI site of pcDNA3.1 or pCIneo; expressed in transfected cells; host or cells: Xenopus laevis melanophores (transient)

[1] = biological target: T2, FLAG epitope-tagged HG20 receptor subunit (FLAG epitope fused to amino acids 52-941 of HG20) (human, UniProt O75899 52-941); assay: co-immunoprecipitation and immunoblot
T2 construct: Expressed from SF-HG20/pcDNA3.1 in COS cells and melanophores, or from pT7TS cRNA in oocytes; For immunoprecipitation it was solubilized from membranes with digitonin; also called FLAG-HG20; SF-HG20
T2 sequence: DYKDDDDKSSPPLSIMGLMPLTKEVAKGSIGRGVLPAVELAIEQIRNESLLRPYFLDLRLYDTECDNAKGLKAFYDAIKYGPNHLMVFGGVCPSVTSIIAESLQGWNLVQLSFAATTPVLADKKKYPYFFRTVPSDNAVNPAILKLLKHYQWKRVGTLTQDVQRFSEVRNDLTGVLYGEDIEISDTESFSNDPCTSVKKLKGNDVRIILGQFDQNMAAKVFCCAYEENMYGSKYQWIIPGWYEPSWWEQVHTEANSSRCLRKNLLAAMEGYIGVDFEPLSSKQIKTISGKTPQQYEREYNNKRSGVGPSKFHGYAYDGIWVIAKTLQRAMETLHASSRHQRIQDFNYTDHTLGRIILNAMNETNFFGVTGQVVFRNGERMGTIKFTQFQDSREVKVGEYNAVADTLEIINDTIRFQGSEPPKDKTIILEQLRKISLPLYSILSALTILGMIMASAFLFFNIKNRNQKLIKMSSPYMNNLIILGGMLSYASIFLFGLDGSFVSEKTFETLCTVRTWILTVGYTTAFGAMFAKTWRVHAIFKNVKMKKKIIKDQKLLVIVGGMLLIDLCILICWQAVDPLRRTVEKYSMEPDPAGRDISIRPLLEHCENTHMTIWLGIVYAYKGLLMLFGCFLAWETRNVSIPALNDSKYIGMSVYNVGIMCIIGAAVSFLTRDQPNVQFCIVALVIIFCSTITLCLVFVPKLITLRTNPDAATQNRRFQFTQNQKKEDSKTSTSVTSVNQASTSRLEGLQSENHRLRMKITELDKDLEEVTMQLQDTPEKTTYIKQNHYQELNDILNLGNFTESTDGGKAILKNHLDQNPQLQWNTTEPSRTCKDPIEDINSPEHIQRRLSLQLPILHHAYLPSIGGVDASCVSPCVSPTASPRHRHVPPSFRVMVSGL

[2] = biological target: the molecule itself; assay: [125I]CGP71872 photolabelling of COS-7 membranes, SDS-PAGE (FIG. 9)

Procedure for wild-type HEK293 cells: Following a 20 min incubation at 37° C., the assay was terminated by setting the cells on ice and centrifuging at 2,000 rpm for 5 min at 4° C. […] Immulon II removawells (Dynatech; Chantilly, Va.) were coated overnight with 100 μl of protein G (1 mg/ml in 0.1M NaHCO3, pH 9.0) at 4° C. Prior to use, protein G-coated plates were rinsed with PBS-gelatin-Tween (phosphate buffered saline containing 0.1% gelatin, 0.2% Tween-20) 3 times quickly, and then once for 30 minutes. […] Plates were incubated 2 hr at 37° C. or overnight at 4° C., rinsed 3 times with sodium acetate buffer, blotted dry, and then individual wells were broken off and bound radioactivity was determined in a gamma counter.

Molecule: NCC(CC(=O)O)c1ccc(Cl)cc1 (stereo not shown) [baclofen]
- inhibition of forskolin-stimulated cAMP synthesis (wild-type HEK293 cells): did not exhibit

Molecule: HG20 as expressed in HEK293 cells (HG20 cDNA in pcDNA3.1) (from UniProt O75899 42-941)
- reduction of forskolin-stimulated cAMP synthesis in HEK293 cells (hgb2-42 cells transfected with GABABR1a, GABA plus AOAA and nipecotic acid) (murine GABABR1a (murine)): 43 % decrease

Molecule: O=S(=O)(O)C1CCNCC1 [piperidine-4-sulfonic acid]
- pigment aggregation or dispersion response (GABABR1a): no pigment aggregation or dispersion response

Molecule: HG20 as expressed in HEK293 cells (HG20 cDNA in pcDNA3.1) (from UniProt O75899 42-941) (receptor)
- reduction of forskolin-stimulated cAMP synthesis in HEK293 cells (hgb2-42 cells transfected with GABABR1a, baclofen) (murine GABABR1a (murine)): 34 % reduction
- reduction of forskolin-stimulated cAMP synthesis in HEK293 cells (rgb1a-50 cells transfected with HG20, 30 µM GABA plus AOAA and nipecotic acid) (murine GABABR1a (murine)): 40 % decrease
- reduction of forskolin-stimulated cAMP synthesis in HEK293 cells (rgb1a-50 cells transfected with HG20, 30 µM baclofen) (murine GABABR1a (murine)): 28 % reduction

Molecule: NC/C=C\C(=O)O [cis-4-aminocrotonic acid]
- pigment aggregation or dispersion response (GABABR1a): no pigment aggregation or dispersion response

Molecule: N[C@@H](CCC(=O)O)C(=O)O [L-Glutamate, (L)-glutamic acid]
- pigment aggregation or dispersion response (GABABR1a): no pigment aggregation or dispersion response

B1: murine GABABR1a (receptor)
chain: GAQTPNVTSEGCQIIHPPWEGGIRYRGLIRDQVKAINFLPVDYEIEYVCRGEREVVGPKVRKCLANGSWTDMDTPSRCVRICSKSYLTLENGKVFLTGGDLPALDGARVDFRCDPDFHLVGSSRSICSQGQWSTPKPHCQVNRTPHSERRAVYIGALFPMSGGWPGGQACQPAVEMALEDVNSRRDILPDYELKLIHHDSKCDPGQATKYLYELLYNDPIKIILMPGCSSVSTLVAEAARMWNLIVLSYGSSSPALSNRQRFPTFFRTHPSATLHNPTRVKLFEKWGWKKIATIQQTTEVFTSTLDDLEERVKEAGIEITFRQSFFSDPAVPVKNLKRQDARIIVGLFYETEARKVFCEVYKERLFGKKYVWFLIGWYADNWFKTYDPSINCTVEEMTEAVEGHITTEIVMLNPANTRSISNMTSQEFVEKLTKRLKRHPEETGGFQEAPLAYDAIWALALALNKTSGGGGRSGVRLEDFNYNNQTITDQIYRAMNSSSFEGVSGHVVFDASGSRMAWTLIEQLQGGSYKKIGYYDSTKDDLSWSKTDKWIGGSPPADQTLVIKTFRFLSQKLFISVSVLSSLGIVLAVVCLSFNIYNSHARYIQNSQPNLNNLTAVGCSLALAVVFPLGLDGYHIGRSQFPFVCQARLWLLGLGFSLGYGSMFTKIWWVHTVFTKKEEKKEWRKTLEPWKLYATVGLLVGMDVLTLAIWQIVDPLHRTIETFAKEEPKEDIDVSILPQLEHCSSKKMNTWLGIFYGYKGLLLLLGIFLAYETKSVSTEKINDHRAVGMAIYNVAVLCLITAPVTMILSSQQDAAFAFASLAIVFSSYITLVVLFVPKMRRLITRGEWQSETQDTMKTGSSTNNNEEEKSRLLEKENRELEKIIAEKEERVSELRHQLQSRQQLRSRRHPPTPPDPSGGLPRGPSEPPDRLSCDGSRVHLLYK
notes: Full-length cDNA was expressed in COS-7 cells, HEK293 cells, melanophores and oocytes; also called mgb1a; gb1a
- binding result [1]: binds
- binding result [2]: binds
